This assay addresses SBF (^FLAGSwi4-Swi6 complex) (S. cerevisiae, UniProt P25302 1-1093; P09959 1-803). The assay is described as follows: pull-down.

SBF (^FLAGSwi4-Swi6 complex), sequence (P25302 whole entry, chain 1 of 2): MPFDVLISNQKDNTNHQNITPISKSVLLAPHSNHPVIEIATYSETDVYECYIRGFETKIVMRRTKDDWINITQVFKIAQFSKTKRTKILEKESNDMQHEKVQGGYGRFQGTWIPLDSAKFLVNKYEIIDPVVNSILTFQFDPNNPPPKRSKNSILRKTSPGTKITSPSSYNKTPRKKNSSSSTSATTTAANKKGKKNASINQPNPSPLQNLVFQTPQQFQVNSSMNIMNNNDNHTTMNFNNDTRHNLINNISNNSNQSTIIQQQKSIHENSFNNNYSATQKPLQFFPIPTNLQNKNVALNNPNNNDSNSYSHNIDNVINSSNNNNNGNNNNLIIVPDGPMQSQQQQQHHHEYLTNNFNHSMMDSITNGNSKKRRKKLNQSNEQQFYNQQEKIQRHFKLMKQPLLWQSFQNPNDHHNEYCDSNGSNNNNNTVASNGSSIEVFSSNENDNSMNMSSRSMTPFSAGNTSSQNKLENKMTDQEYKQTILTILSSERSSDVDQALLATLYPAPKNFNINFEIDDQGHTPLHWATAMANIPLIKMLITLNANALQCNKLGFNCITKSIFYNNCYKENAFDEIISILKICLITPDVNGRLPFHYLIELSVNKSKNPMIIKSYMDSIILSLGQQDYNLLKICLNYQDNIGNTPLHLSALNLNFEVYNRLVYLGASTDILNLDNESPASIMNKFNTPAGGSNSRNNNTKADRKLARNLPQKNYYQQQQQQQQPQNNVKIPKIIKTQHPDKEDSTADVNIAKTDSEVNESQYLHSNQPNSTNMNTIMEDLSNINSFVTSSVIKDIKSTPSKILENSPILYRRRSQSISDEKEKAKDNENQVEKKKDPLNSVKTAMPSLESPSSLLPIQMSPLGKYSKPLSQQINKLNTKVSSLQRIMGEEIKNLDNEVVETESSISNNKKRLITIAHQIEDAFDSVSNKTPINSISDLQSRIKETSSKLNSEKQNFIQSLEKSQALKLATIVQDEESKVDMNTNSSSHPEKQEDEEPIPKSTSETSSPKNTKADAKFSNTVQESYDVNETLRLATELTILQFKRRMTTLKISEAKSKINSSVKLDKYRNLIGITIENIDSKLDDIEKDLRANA
SBF (^FLAGSwi4-Swi6 complex), sequence (P09959 whole entry, chain 2 of 2): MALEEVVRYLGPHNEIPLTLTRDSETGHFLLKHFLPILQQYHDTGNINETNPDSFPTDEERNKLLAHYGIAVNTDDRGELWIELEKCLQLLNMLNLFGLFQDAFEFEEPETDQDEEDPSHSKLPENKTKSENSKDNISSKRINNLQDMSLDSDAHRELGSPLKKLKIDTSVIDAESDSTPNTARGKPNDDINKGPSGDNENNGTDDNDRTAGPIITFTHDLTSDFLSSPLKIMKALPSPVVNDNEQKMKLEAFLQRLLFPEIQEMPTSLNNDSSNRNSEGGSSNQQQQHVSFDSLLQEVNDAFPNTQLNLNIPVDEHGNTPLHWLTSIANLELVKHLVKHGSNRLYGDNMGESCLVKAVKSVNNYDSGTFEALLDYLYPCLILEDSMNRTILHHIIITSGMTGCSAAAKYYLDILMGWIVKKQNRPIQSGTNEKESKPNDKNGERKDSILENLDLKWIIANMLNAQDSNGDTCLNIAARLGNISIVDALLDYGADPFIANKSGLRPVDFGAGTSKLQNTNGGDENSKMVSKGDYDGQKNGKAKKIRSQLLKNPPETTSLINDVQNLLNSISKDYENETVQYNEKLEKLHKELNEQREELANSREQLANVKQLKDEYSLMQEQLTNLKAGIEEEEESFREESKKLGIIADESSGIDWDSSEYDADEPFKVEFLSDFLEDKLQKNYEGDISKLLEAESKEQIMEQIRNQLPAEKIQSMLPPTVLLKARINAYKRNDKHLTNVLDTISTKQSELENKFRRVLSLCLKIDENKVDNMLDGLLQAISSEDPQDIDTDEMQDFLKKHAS

B1: ^GSTWhi5 (recombinant) (natural protein, S. cerevisiae, UniProt Q12416 1-295, looked up)
chain: MSLRTPKRSRTSDEQEQEQEQEQVQNPDTHVNNEHQQRPGPTTLLSTPVRLKNGFGTPSPPSPPGITKSITKSRRRPSTTSLQGIFMSPVNKRRVGITAHGRVYDHNDDGHESESEDDENEEENENQKKYDGHVSMPLLPPTTPKSRRSEVFLSPSPRLRSPPTAARRSTGERPIREISHTLRTRLNYALVKLQNGWTDKTLPELETELAPAVQTPPRRYHNRFPDSADAGTSAHTAFLQALGGHPPREEATAVETLMLLSSPTKKQQHRPVPATSAGEPTDETEPESDTEVETS
Regarding B1, the binding result was “binds”.

Source of the values: paper doi:10.1101/2020.04.20.033787 (bioRxiv, 2020).
